The target of experiment [1] is T1, AAV9 (adeno-associated virus 9).
T1 construct: also called adeno-associated virus serotype 9
Nature of the experiment: SPR, AAV amine-coupled to CM5 chip.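 Note: nanobodies flowed as analyte at seven concentrations spanning 1–100 nM over immobilized AAV (500–800 RU), kinetic constants derived by fitting the binding curves.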
Method: (§1) AAV was amine-coupled to a CM5 sensor chip at a density of 500-800 response units (RU). Nanobodies were injected at seven concentrations (1-100 nM) with a flow rate of 45 μL/min, and chip regeneration was performed using glycine-HCl (pH 1.5). Binding curves at different nanobody concentrations were used to calculate kinetic parameters (Kₐ, Kd, KD) (Table 2 and FIG. 2).

Experiment [2] has as its target T2, AAV5 (adeno-associated virus 5).
T2 construct: also called adeno-associated virus serotype 5
The experiment in a line: SPR, AAV amine-coupled to CM5 chip.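 Note: nanobodies flowed as analyte at seven concentrations spanning 1–100 nM over immobilized AAV (500–800 RU), kinetic constants derived by fitting the binding curves.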
Method: as §1

Experiment [3] has as its target T3, AAV2 (adeno-associated virus 2, UniProt P03135 1-735).
T3 construct: also called adeno-associated virus serotype 2
Nature of the experiment: SPR, AAV amine-coupled to CM5 chip. (In general: In SPR one partner is held on a chip, and binding of the other changes the refractive index at the surface.)
Method: as §1

In experiment [4] the target is T4, AAV8 (adeno-associated virus 8).
T4 construct: also called adeno-associated virus serotype 8
Nature of the experiment: SPR, AAV amine-coupled to CM5 chip.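 Note: nanobodies flowed as analyte at seven concentrations spanning 1–100 nM over immobilized AAV (500–800 RU), kinetic constants derived by fitting the binding curves.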
Method: as §1

Experiment [5] concerns the target T5, AAV8 (adeno-associated virus serotype 8).
T5 construct: also called adeno-associated virus serotype 8
Nature of the experiment: SPR, AAV on CM5 chip.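 Note: surface plasmon resonance with AAV amine-coupled to the chip as ligand, nanobodies injected as analyte over a concentration series, rate constants and affinity fitted from binding curves.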
Method: as §1

In experiment [6] the target is T6, AAV5 (adeno-associated virus serotype 5).
T6 construct: also called adeno-associated virus serotype 5
Nature of the experiment: SPR, AAV on CM5 chip.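 Note: surface plasmon resonance with AAV amine-coupled to the chip as ligand, nanobodies injected as analyte over a concentration series, rate constants and affinity fitted from binding curves.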
Method: as §1

For experiment [7], the target named is T7, AAV9 (adeno-associated virus serotype 9).
T7 construct: also called adeno-associated virus serotype 9
The experiment in a line: SPR, AAV on CM5 chip.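 Note: surface plasmon resonance with AAV amine-coupled to the chip as ligand, nanobodies injected as analyte over a concentration series, rate constants and affinity fitted from binding curves.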
Method: as §1

B1: A4-076 (VHH)
VHH: VQLQESGGGLVHSGGSLRLSCAASGSMFSLNTMGWYRQAPGKQRELVATITRGGGTSYADSVKGRFTISRDNAKNTVYLQMNSLRPEDTAVYYCHVDELRQSSWTTSNLWGQGTQVTVSS
B1: the Kd (commonly the free concentration of one partner at which half of the binding sites on the other are occupied at equilibrium, for simple one-to-one binding) in experiment [1] is 8.16 nM; in experiment [2], 37 nM; in experiment [3], 73.6 nM; in experiment [4], 98.1 nM. Moreover, the koff (in general, the rate constant with which the complex falls apart) in experiment [1] worked out at 6e-05 s⁻¹; in experiment [2], 0.00015 s⁻¹; in experiment [3], 0.00056 s⁻¹; in experiment [4] it was 0.00092 s⁻¹. The kon – broadly, a measure of how fast the partners come together – was determined as 7360 M⁻¹ s⁻¹ in experiment [1], 4060 M⁻¹ s⁻¹ in experiment [2], 7610 M⁻¹ s⁻¹ in experiment [3] and 9380 M⁻¹ s⁻¹ in experiment [4].

B2: A4-103 (VHH)
VHH: VQLQESGGGLVQPGGSLRLSCAASGSIFSLNAMGWYRQAPGKQRELVATITRGGSTNYADSVKGRFTISRDNAKNTVYLQMNSLRPEDTAVYYCHVDEVRESIWTTSNLWGQGTQVTVSS
For the molecule B2, in experiment [5], binding was characterised by a dissociation constant (Kd) of 35.1 nM, the koff was 0.00182 s⁻¹ and the kon is 51900 M⁻¹ s⁻¹. Also, in experiment [6], the Kd was 26.9 nM, the koff was found to be 0.00137 s⁻¹ and the kon stood at 51000 M⁻¹ s⁻¹. Further, in experiment [7], the Kd was 81.2 nM, the koff was 0.00107 s⁻¹ and the kon was determined as 13200 M⁻¹ s⁻¹.

B3: A4-093 (VHH)
VHH: VQLQESGGGLVQTGGSLRLSCAASGSIFIINTMGWYRQRAGKQRELVATVTRGGSTNYADSVKGRFTISRDNAKNTVYLQMNTLRPEDTAVYYCHVDELRQSSWTTSNLWGQGTQVTVSS
On to B3, for which the Kd in experiment [1] came to 15.5 nM; in experiment [2], 8.21 nM; in experiment [3], 46 nM; in experiment [4], 11.8 nM. The koff in experiment [1] came to 0.0011 s⁻¹; in experiment [2] it was 0.00114 s⁻¹; in experiment [3], 0.00103 s⁻¹; in experiment [4], 0.00196 s⁻¹. Moreover, the kon in experiment [1] is 70800 M⁻¹ s⁻¹; in experiment [2], 139000 M⁻¹ s⁻¹; in experiment [3], 22400 M⁻¹ s⁻¹; in experiment [4], 166000 M⁻¹ s⁻¹.

B4: A4-092 (VHH)
VHH: VQLQESGGGLVQTGGSLRLSCLASGSIFSINTMGWYRQRAGKQRELVATVTRAGSTNYADSVKGRFTISRDNAKNTVYLQMNSLRPEDTAVYYCHVDEIRESSWTTSNLWGQGTQVTVSS
With B4, the Kd amounted to 1.06 nM in experiment [1], 0.194 nM in experiment [2], 1.09 nM in experiment [3] and 0.106 nM in experiment [4]. In addition, the koff was found to be 9e-05 s⁻¹ in experiment [1], 1e-05 s⁻¹ in experiment [2], 6e-05 s⁻¹ in experiment [3] and 2e-05 s⁻¹ in experiment [4]. Moreover, the kon in experiment [1] was 84900 M⁻¹ s⁻¹; in experiment [2], 51600 M⁻¹ s⁻¹; in experiment [3], 55100 M⁻¹ s⁻¹; in experiment [4], 188000 M⁻¹ s⁻¹.

B5: A4-077 (VHH)
VHH: VQLQESGGGLVQPGGSLRLSCAASGSMFSINIMGWYRQAPGKQREFVATITRGGSTNYADFVKGRFTISRDNAKNTVYLQMNSLRPEDTAVYYCHVDELRDSSWTTSNLWGQGTQVTVSS
B5: the Kd was determined as 1.87 nM in experiment [1], 0.987 nM in experiment [2], 4.63 nM in experiment [3] and 2.92 nM in experiment [4]. For the same molecule, the koff is 0.00037 s⁻¹ in experiment [1], 0.00019 s⁻¹ in experiment [2], 0.00046 s⁻¹ in experiment [3] and 0.00038 s⁻¹ in experiment [4]. The association rate constant (kon) came to 198000 M⁻¹ s⁻¹ in experiment [1], 193000 M⁻¹ s⁻¹ in experiment [2], 99300 M⁻¹ s⁻¹ in experiment [3] and 130000 M⁻¹ s⁻¹ in experiment [4].

B6: A4-083 (VHH)
VHH: VQLQESGGGLVQTGGSLKLSCAASGSRFSLNTMGWYRQAPRKQREFVAAVTRGGNTNYGDFVKGRFTISRDNAKNTVYLQMNSLRPEDTAVYYCHVDELRESSWTTSNLWGQGTQVTVSS
For B6, the Kd was 92.3 nM in experiment [1], 31 nM in experiment [2], 944 nM in experiment [3] and 42.4 nM in experiment [4]. Further, the koff in experiment [1] was found to be 0.00657 s⁻¹; in experiment [2], 0.00287 s⁻¹; in experiment [3], 0.00344 s⁻¹; in experiment [4] it was 0.00737 s⁻¹. The kon amounted to 71200 M⁻¹ s⁻¹ in experiment [1], 92500 M⁻¹ s⁻¹ in experiment [2], 3640 M⁻¹ s⁻¹ in experiment [3] and 174000 M⁻¹ s⁻¹ in experiment [4].

B7: A4-089 (VHH)
VHH: VQLQESGGGLVQPGGSLRLSCAASGSNFSINTMGWYRQAPGKQRELVATFTRAGNTNYADSVKGRFTISRDNGKNTVYLQMNSLRPEDTAVYYCHVDEVRDSSWTTSNLWGQGTQVTVSS
In the case of B7, the Kd was found to be 2.29 nM in experiment [1], 163 nM in experiment [2], 4.28 nM in experiment [3] and 4.48 nM in experiment [4]. The koff amounted to 0.00041 s⁻¹ in experiment [1], 0.00099 s⁻¹ in experiment [2], 0.0008 s⁻¹ in experiment [3] and 0.00054 s⁻¹ in experiment [4]. The kon in experiment [1] was determined as 179000 M⁻¹ s⁻¹; in experiment [2], 6080 M⁻¹ s⁻¹; in experiment [3] it was 187000 M⁻¹ s⁻¹; in experiment [4], 121000 M⁻¹ s⁻¹.

B8: A4-090 (VHH)
VHH: VQLQESGGGLVQPGGSLRLSCVASGSRFIINTMGWYRQAPGKQRELVATFTRGGNTNYAESVKGRFTISRDNGKSTVYLQMNSLRPEDTAVYYCHVDEVRESTWTTSNLWGQGTQVTVSS
B8: the dissociation constant (Kd) was 24.9 nM in experiment [1], 121 nM in experiment [2], 6.83 nM in experiment [3] and 14.5 nM in experiment [4]. For the same molecule, the koff is 0.0015 s⁻¹ in experiment [1], 0.00186 s⁻¹ in experiment [2], 0.00136 s⁻¹ in experiment [3] and 0.00109 s⁻¹ in experiment [4]. Also, the kon in experiment [1] came to 60400 M⁻¹ s⁻¹; in experiment [2], 15300 M⁻¹ s⁻¹; in experiment [3], 199000 M⁻¹ s⁻¹; in experiment [4] it was 75300 M⁻¹ s⁻¹.

B9: A4-101 (VHH)
VHH: VQLQESGGGLVQPGGSLRLSCAASGSRFSINIMGWYRQAPGKQRELVASVTRGGTTNYADSVKGRFTISRDNPKNTIYLQMNSLRPEDTAVYYCHVDEIRESTWTTSNLWGQGTQVTVSS
Take B9: in experiment [5], binding was characterised by a dissociation constant (Kd) of 162 nM, the koff stood at 0.00129 s⁻¹ and the kon turned out to be 7970 M⁻¹ s⁻¹. In experiment [6], this molecule displayed an equilibrium dissociation constant (Kd) of 70.8 nM, a koff of 0.00034 s⁻¹ and a kon of 4800 M⁻¹ s⁻¹. In experiment [7], this molecule gave a Kd of 13.4 nM, a koff of 9e-05 s⁻¹ and a kon of 6700 M⁻¹ s⁻¹.

B10: A4-099 (VHH)
VHH: VQLQESGGGLVQTGGSLRLSCAASGSSFSINTMGWYRQAPGKWRELVAAVTRGGDTNYAESVKGRFTISRDNGKNTVYLQMNSLRPEDTAVYYCHIDEIRESSWTTSNLWGQGTQVTVSS
B10: the Kd in experiment [1] stood at 0.203 nM; in experiment [2] it was 4.19 nM; in experiment [3], 1.06 nM; in experiment [4], 2.57 nM. The koff in experiment [1] was found to be 3e-05 s⁻¹; in experiment [2] it was 0.00041 s⁻¹; in experiment [3] it was 0.00021 s⁻¹; in experiment [4] it was 0.0005 s⁻¹. The kon in experiment [1] came out at 148000 M⁻¹ s⁻¹; in experiment [2] it was 98000 M⁻¹ s⁻¹; in experiment [3], 197000 M⁻¹ s⁻¹; in experiment [4] it was 194000 M⁻¹ s⁻¹.

B11: A4-102 (VHH)
VHH: VQLQESGGGLVQPGGSLRLSCAASGSHFTINSVGWYRQAPGKQRELVAPVTRGGTTNYADFVKGRFTISRDNAKNTVYLQMNSLRPEDTAVYYCHVDELRDSSWTTSNLWGQGTQVTVSS
In experiment [5], B11 registered a Kd of 7.86 nM, a koff of 0.0006 s⁻¹ and an association rate constant (kon) of 76300 M⁻¹ s⁻¹. In experiment [6], binding was put at a Kd of 40.4 nM, the koff came out at 0.007 s⁻¹ and the on-rate constant (kon) is 173000 M⁻¹ s⁻¹. In experiment [7], this molecule gave a Kd of 30.8 nM, a koff of 0.00465 s⁻¹ and a kon of 151000 M⁻¹ s⁻¹.

B12: A4-088 (VHH)
VHH: VQLQESGGGLVQTGGSLRLSCAASGSRFSLNTMGWYRQAPGKQRELVAAVTRGGNTNYGDFVKGRFTISRDNAKNTVYLQMNSLRPEDTAVYYCHVDELRESSWTTSNLWGQGTQVTVSS
Turning to B12, the Kd is 234 nM in experiment [1], 201 nM in experiment [2], 2420 nM in experiment [3] and 538 nM in experiment [4]. Also, the koff in experiment [1] was determined as 0.00177 s⁻¹; in experiment [2] it was 0.00146 s⁻¹; in experiment [3] it was 0.00993 s⁻¹; in experiment [4], 0.00454 s⁻¹. For the same molecule, the kon was found to be 7570 M⁻¹ s⁻¹ in experiment [1], 7260 M⁻¹ s⁻¹ in experiment [2], 4100 M⁻¹ s⁻¹ in experiment [3] and 8440 M⁻¹ s⁻¹ in experiment [4].

B13: A4-104 (VHH)
VHH: VQLQESGGGLVQPGGSLRLSCAASGSIFSLNSMGWYRQAPGKQRELVATITSGGSTNYAGSVKGRFTISRDNAKNTVYLQMNNLQPEDTAVYYCHVDEVRESSWTTSNLWGQGTQVTVSS
As for B13, in experiment [5], the Kd amounted to 10.5 nM, the koff was found to be 3e-05 s⁻¹ and the kon stood at 2860 M⁻¹ s⁻¹. For the same molecule, in experiment [6], the Kd was found to be 44 nM, the koff stood at 0.00037 s⁻¹ and the kon is 8420 M⁻¹ s⁻¹. Also, in experiment [7], the Kd stood at 451 nM, the koff is 0.00093 s⁻¹ and the kon was determined as 2060 M⁻¹ s⁻¹.

B14: A4-106 (VHH)
VHH: VQLQESGGGLVQPGGSLRLSCIASGSIFSLNAMGWYRQAPGKQRELVATITSGGSTNYADSVKGRFTISRDNAKNTAYLQMNNLQPEDTAVYYCHVDEVRESIWTTSNLWGQGTQVTVSS
In experiment [5], B14 had a Kd of 16 nM, a koff of 0.00191 s⁻¹ and an on-rate (kon) of 120000 M⁻¹ s⁻¹. In experiment [6], this molecule registered a Kd of 2.12 nM, a koff of 0.00042 s⁻¹ and a kon of 198000 M⁻¹ s⁻¹. In experiment [7], this molecule registered a Kd of 1.65 nM, a koff of 0.00011 s⁻¹ and a kon of 66600 M⁻¹ s⁻¹.

(Values after patent US20260193326A1 (published 2026).)
